Reference: patent publication US20200199236A1 (BIO THERA SOLUTIONS, published 2020)

Assays:
CD20 [1] = target: T1, CD20 (UniProt P11836 1-297, limits assumed); assay: flow cytometry, antibody titrated on Wil2-s cells, FITC anti-human IgG1 Fab secondary
T1 construct: whole, on cells; Endogenous CD20 on Raji and Wil2-s cell lines; also called CD20 on Raji cells; CD20 on Wil2-s cells
T1 sequence (looked up): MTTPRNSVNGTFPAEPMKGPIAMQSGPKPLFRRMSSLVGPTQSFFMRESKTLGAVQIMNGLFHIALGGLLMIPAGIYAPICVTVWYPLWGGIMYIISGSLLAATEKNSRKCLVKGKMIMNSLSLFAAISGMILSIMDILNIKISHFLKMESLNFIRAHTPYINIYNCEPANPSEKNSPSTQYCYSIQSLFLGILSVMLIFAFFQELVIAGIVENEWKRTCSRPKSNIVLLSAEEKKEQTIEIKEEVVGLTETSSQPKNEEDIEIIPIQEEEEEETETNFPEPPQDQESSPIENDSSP

CD20 [2] = target: T1, CD20; assay: flow cytometry, antibody titrated on Raji cells, FITC anti-human IgG1 Fab secondary
CD20 [3] = target: T1, CD20; assay: flow cytometry on Wil2-s cells; Kd=[Ab]*{Fmax/(F-Fback)-1}
CD20 [4] = target: T1, CD20; assay: flow cytometry; Mean Kd over Raji and Wil2-s cells
CD20 [5] = target: T1, CD20; assay: flow cytometry on Raji cells; Kd=[Ab]*{Fmax/(F-Fback)-1}
FcγRIIIa 158V = target: T2, FcγRIIIa 158V (UniProt P08637 17-208, biotin-labeled (site not stated)); assay: biosensor with SA sensor, biotin-FcγRIIIa 158V loaded, antibody in solution (7 concentrations, 2x gradient from 500 nM)
T2 construct: also called biotin-labeled FcγRIIIa 158V
T2 sequence (P08637 17-208 F176V): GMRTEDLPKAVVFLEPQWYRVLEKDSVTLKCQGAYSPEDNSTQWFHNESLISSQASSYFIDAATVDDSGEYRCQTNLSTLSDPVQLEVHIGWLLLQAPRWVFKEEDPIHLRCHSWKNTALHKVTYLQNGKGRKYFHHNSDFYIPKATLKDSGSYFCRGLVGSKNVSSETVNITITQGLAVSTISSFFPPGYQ
Method: The sensor was pre-wetted in PBS for 10 min. […] AB solution, […], regeneration buffer, drug diluent and neutralization buffer were sequentially added to the corresponding columns of a 96-well plate. The SA sensor operates as follows: Baseline: detected the baseline in AB, 150 s; Association: combined in the gradient concentration of drug diluent sample and blank (AB) for 90 s; Dissociation: dissociated in AB for 120 s; Regeneration: regenerated in NaOH (pH 10.5) for 5 s; Neutralization: neutralized in AB for 5 s. The regeneration and neutralization cycles were carried out for 3 times. The collected data were analyzed by the instrument data analysis software Acquisition 8.2. Taking Baseline acquisition signal as a baseline and subtracting the reference signal (double deduction of sample blank and sensor blank), the data were subject to group analysis and fitted.

B1: Rituximab (antibody, V domains shown)
VH: QVQLQQPGAELVKPGASVKMSCKASGYTFTSYNMHWVKQTPGRGLEWIGAIYPGNGDTSYNQKFKGKATLTADKSSSTAYMQLSSLTSEDSAVYYCARSTYYGGDWYFNVWGAGTTVTVSA
VL: QIVLSQSPAILSASPGEKVTMTCRASSSVSYIHWFQQKPGSSPKPWIYATSNLASGVPVRFSGSGSGTSYSLTISRVEAEDAATYYCQQWTSNPPTFGGGTKLEIK
IC50 (CD20 [1]): 16.8 nM
IC50 (CD20 [2]): 13.3 nM
Kd (CD20 [3]): 16 nM
Kd (CD20 [4]): 14.3 nM
Kd (CD20 [5]): 12.7 nM

B2: BAT4306F (antibody, human IgG1)
light: DIVMTQTPLSLPVTPGEPASISCRSSKSLLHSNGITYLYWYLQKPGQSPQLLIYQMSNLVSGVPDRFSGSGSGTDFTLKISRVEAEDVGVYYCAQNLELPYTFGGGTKVEIKR
heavy: not shown
modifications: N-linked oligosaccharide without fucose (produced in FUT8 knockout CHO-2G8 / CHO-BAT-KF cells)
notes: Humanized anti-CD20 IgG with B-HH6 heavy and B-KV1 light variable regions from B-Ly1 (WO2005044859); Non-fucosylated glycoform; also called carbohydrate chain modified BAT4306F
Kd (FcγRIIIa 158V): 25.7 nM
